The record followed here is paper PMC12607630.

In this experiment the target is 6×His-SUMO-FtsZ 370-383 (Escherichia coli) (UniProt P0A9A6). The experiment can be described thus: BLI; 6×His-SUMO fusions of FtsZ or its parts, or SUMO alone (0.5 µM), held on Ni-NTA biosensors, untagged ZapC in solution; Octet-Red96, 30°C, 1× Pol buffer (50 mM HEPES-NaOH pH 6.8, 50 mM KCl, 10 mM MgCl2); apparent Kd from the signal at the end of association against concentration, one-site fit; three repeats with mean (X) and SD. (Biolayer interferometry detects binding as a change in optical thickness at a sensor tip.)

By pKd is commonly meant the Kd on a negative log10 scale, so that one unit is a factor of ten.

pKd: −log10 of the molar value. Several values for one entry are separate records, joined by “and”; a condition that tells them apart may be missing. Equal values may be shown once.

In the case of “ZapC (untagged) (from UniProt P75862 1-180) (natural protein)”, the pKd is 4.99 and 5.09 and 5.00.
